The values that follow come from patent US20090186043A1 (BEN GURION UNIVERSITY OF THE NEGEV RESEARCH AND DEVELOPMENT …, published 2009).

The assay concerns the target T1, Recombinant Fructose Bisphosphate Aldolase (rFBA), FBA-HAT fusion protein, 33.5 kDa (Streptococcus pneumoniae TIGR4, UniProt P0A4S1 1-293).
T1 construct: Expressed in E. coli BL21(DE3)pLysS and purified on Ni-NTA in 8 M urea; also called rFBA-HAT fusion protein; recombinant FBA; not shown: HAT (histidine) tag from the pHAT expression vector
T1 sequence (looked up): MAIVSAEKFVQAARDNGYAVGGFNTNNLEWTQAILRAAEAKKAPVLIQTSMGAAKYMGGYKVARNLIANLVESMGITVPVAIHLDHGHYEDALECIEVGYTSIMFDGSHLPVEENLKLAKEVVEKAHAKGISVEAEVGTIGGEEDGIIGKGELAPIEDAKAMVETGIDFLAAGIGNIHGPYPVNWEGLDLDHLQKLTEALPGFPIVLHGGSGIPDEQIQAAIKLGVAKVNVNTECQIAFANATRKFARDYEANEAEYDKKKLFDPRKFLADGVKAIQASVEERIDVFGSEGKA
In words: Western blot like overlay: rFBA on nitrocellulose probed with FCRP, rabbit anti-FCRP-KLH serum and anti-rabbit IgG.

B1: Flamingo Cadherin receptor derived synthetic peptide (FCRP), 15 amino acids (peptide)
peptide: H-ADSDSDSDLSLEEER-OH
notes: Derived from human Flamingo homolog 1 (Q9NYQ7); also called FC peptide; FC derived synthetic peptide
Take B1: the binding result is “binds”.
